B2: JARID2 1–450 with K116me3 (within PRC2AJ1–450) (domain or fragment, UniProt Q92833 1-450, looked up)
chain: MSKERPKRNIIQKKYDDSDGIPWSEERVVRKVLYLSLKEFKNSQKRQHAEGIAGSLKTVNGLLGNDQSKGLGPASEQSENEKDDASQVSSTSNDVSSSDFEEGPSRKRPRLQAQRKFAQSQPNSPSTTPVKIVEPLLPPPATQISDLSKRKPKTEDFLTFLCLRGSPALPNSMVYFGSSQDEEEVEEEDDETEDVKTATNNASSSCQSTPRKGKTHKHVHNGHVFNGSSRSTREKEPVQKHKSKEATPAKEKHSDHRADSRREQASANHPAAAPSTGSSAKGLAATHHHPPLHRSAQDLRKQVSKVNGVTRMSSLGAGVTSAKKMREVRPSPSKTVKYTATVTKGAVTYTKAKRELVKDTKPNHHKPSSAVNHTISGKTESSNAKTRKQVLSLGGASKSTGPAVNGLKVSGRLNPKSCTKEVGGRQLREGLQLREGLRNSKRRLEEAHQA
modifications: trimethyl-lysine at K116 (JARID2 K116me3)
notes: JARID2 residues 1–450; Stood in the assay as a subunit of m1; also called JARID2 K116me3; methylated JARID2; source: Sf9 insect cells (baculovirus), purified as part of the PRC2 complex

How the values were obtained:
[1] = biological target: B2; assay: cryo-EM structure; 100 nM nucleosome (biotinylated DNA, held on streptavidin affinity grids) with 500 nM PRC2 in 50 mM HEPES pH 7.5, 50 mM KCl, 0.5 mM TCEP, 100 µM S-adenosyl homocysteine; 3–5 min at room temperature; conditions: both partners purified
[2] = biological target: T1, EZH2 (catalytic subunit, within the PRC2 complexes) (UniProt Q15910 1-746); assay: as above; conditions: both partners purified
T1 construct: EZH2; Stood in the assay as a subunit of m1 or m2; source: Sf9 insect cells (baculovirus), purified as part of the PRC2 complex
T1 sequence (Q15910 whole entry, one chain of several): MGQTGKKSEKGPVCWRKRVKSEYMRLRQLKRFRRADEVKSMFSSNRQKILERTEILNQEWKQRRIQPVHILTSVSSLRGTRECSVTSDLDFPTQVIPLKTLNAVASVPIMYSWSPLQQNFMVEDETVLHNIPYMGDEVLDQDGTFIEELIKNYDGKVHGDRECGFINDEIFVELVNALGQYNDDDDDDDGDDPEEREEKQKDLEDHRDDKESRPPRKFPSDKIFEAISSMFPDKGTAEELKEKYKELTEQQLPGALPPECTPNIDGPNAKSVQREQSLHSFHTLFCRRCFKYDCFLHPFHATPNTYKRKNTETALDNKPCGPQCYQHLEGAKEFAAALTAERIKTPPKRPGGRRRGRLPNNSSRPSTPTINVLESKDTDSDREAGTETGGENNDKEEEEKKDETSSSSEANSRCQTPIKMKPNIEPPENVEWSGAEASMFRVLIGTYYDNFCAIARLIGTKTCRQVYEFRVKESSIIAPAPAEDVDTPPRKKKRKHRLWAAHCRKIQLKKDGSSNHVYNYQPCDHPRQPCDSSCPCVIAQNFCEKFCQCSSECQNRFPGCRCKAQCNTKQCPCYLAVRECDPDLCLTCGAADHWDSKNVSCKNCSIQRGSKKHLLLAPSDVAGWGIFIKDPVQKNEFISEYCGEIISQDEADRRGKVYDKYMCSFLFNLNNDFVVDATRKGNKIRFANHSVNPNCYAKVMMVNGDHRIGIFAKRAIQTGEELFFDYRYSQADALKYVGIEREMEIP

B1: EED (core subunit, within the PRC2 complexes) (natural protein)
chain: not shown
notes: EED; Stood in the assay as a subunit of m1 or m2; source: Sf9 insect cells (baculovirus), purified as part of the PRC2 complex
- binding result [1]: binds

Binder: B2
- binding result [2]: binds
